Assay results from patent US20240116985A1 (published 2024).
Starred links: 1 amine or outer side, 2 acyl side, 3 side chain; linkers in the order of their positions; H or OH if unused. Positions of bridges follow the written chain, without caps; N, C: chain ends. Non-standard residues stand in square brackets, D forms with d. Primed or numbered codes have the meaning given here. *: point of attachment. PyrS2″ = (S)-3-amino-1-((pent-4-en-1-yloxy)carbonyl)pyrrolidine-3-carboxylic acid (stapling residue), C=CCCCOC(=O)N1CC[C@@](N[*:1])(C(=O)[*:2])C1; B5(4) = 2,2-bis(4-pentenyl)glycine = 2-amino-2-(pent-4-en-1-yl)hept-6-enoic acid (stitching residue), C=CCCCC(CCCC=C)(N[*:1])C(=O)[*:2]; B5(5) = 2,2-bis(4-pentenyl)glycine, 2-amino-2-(pent-4-en-1-yl)hept-6-enoic acid (stitching residue), C=CCCCC(CCCC=C)(N[*:1])C(=O)[*:2]; TfeGA = (S)-2-amino-3-((carboxymethyl)(2,2,2-trifluoroethyl)amino)propanoic acid, O=C([C@H](CN(CC(=O)[*:3])CC(F)(F)F)N[*:1])[*:2]; PyrS2 = (S)-3-amino-1-((pent-4-en-1-yloxy)carbonyl)pyrrolidine-3-carboxylic acid, C=CCCCOC(=O)N1CC[C@@](N[*:1])(C(=O)[*:2])C1; 5iPr3COOHF = (S)-3-(2-amino-2-carboxyethyl)-5-isopropylbenzoic acid, CC(C)c1cc(C[C@H](N[*:1])C(=O)[*:2])cc(C(=O)[*:3])c1; MorphAsn = (S)-2-amino-4-morpholino-4-oxobutanoic acid, O=C(C[C@H](N[*:1])C(=O)[*:2])N1CCOCC1; B5 = 2-amino-2-(pent-4-en-1-yl)hept-6-enoic acid, C=CCCCC(CCCC=C)(N[*:1])C(=O)[*:2]; Phe(3-CF3) = N[C@@H](Cc1cccc(C(F)(F)F)c1)C(=O)O; Phe(4-CF3) = N[C@@H](Cc1ccc(C(F)(F)F)cc1)C(=O)O; Phe(3-COOH) = N[C@@H](Cc1cccc(C(=O)O)c1)C(=O)O; 2F3MeF = Cc1cccc(C[C@H](N[*:1])C(=O)[*:2])c1F; Phe(2-CF3) = N[C@@H](Cc1ccccc1C(F)(F)F)C(=O)O; Phe(3,5-F2) = N[C@@H](Cc1cc(F)cc(F)c1)C(=O)O; Phe(2-Cl) = N[C@@H](Cc1ccccc1Cl)C(=O)O; Bta = N[C@@H](Cc1csc2ccccc12)C(=O)O; Lys(iPr) = CC(C)NCCCC[C@H](N)C(=O)O; αAllylPro = C=CC[C@@]1(C(=O)O)CCCN1; tBuAla = CC(C)(C)C[C@H](N)C(=O)O; 3Thi = N[C@@H](Cc1ccsc1)C(=O)O; Cha = N[C@@H](CC1CCCCC1)C(=O)O; S8 = C=CCCCCCC[C@](C)(N)C(=O)O; hSer = N[C@@H](CCO)C(=O)O; 34ClF = not defined here; NH(CH2)6NH2 = NCCCCCCN*; Aib = CC(C)(N)C(=O)O

B1: I-2417 (peptide)
peptide: Ac-[αAllylPro]D[tBuAla][B5(5)]NT[Aib]AFN[PyrS2″][3Thi][34ClF]Q-NH2
modifications: staple 1-4, 4-11; reading uncertain; also: printed as Ac-PL3-Asp-Npg-B5-Asn-Thr-Aib-Ala-Phe-Asn-PyrS2-3Thi-34C1F-Gln-NH2
B2: I-1053 (peptide)
peptide: XDXXDDAAFNXXXQ
modifications: not fully specified; AzAc-PL3-Asp-Npg-B5-Asp-Asp-Ala-Ala-Phe-Asn-S8-3Thi-BztA-Gln-NH2; stapled PL3-B5 and B5-S8 (olefin metathesis)
B3: I-250 (peptide)
peptide: Ac-[αAllylPro]DA[B5]DDAAFV[S8][Phe(3-CF3)]WQ-NH2
modifications: staple 1-4, 4-11
notes: Stapled peptide composition; also called Ac-PL3-Asp-Ala-B5-Asp-Asp-Ala-Ala-Phe-Val-S8-3F3MeF-Trp-Gln-NH2
B4: I-251 (peptide)
peptide: Ac-[αAllylPro]DA[B5]DDAAFV[S8][Phe(3-CF3)]WQ-NH2
modifications: staple 1-4, 4-11
notes: as for B3
B5: I-255 (peptide)
peptide: Ac-[αAllylPro]DA[B5(4)]DDAAFV[S8][Phe(4-CF3)]WQ-NH2
modifications: staple 1-4, 4-11
notes: Stapled peptide composition; also called Ac-PL3-Asp-Ala-B5-Asp-Asp-Ala-Ala-Phe-Val-S8-4F3MeF-Trp-Gln-NH2
B6: I-254 (peptide)
peptide: XDAXDDAAFVXFWQ
modifications: not fully specified; N-terminal Ac; C-terminal NH2; PL3 at 1, B5 at 4, S8 at 11 (staples 1-4 and 4-11 by olefin metathesis); 4F3MeF at 12
notes: as for B5
B7: I-218 (peptide)
peptide: Ac-[αAllylPro]DA[B5(4)]DEAAXV[S8]FWQ-NH2
modifications: staple 1-4, 4-11; not fully specified (residue 9); printed as Ac-PL3-Asp-Ala-B5-Asp-Glu-Ala-Ala-MeTyr-Val-S8-Phe-Trp-Gln-NH2
notes: Stapled peptide composition; also called Ac-PL3-Asp-Ala-B5-Asp-Glu-Ala-Ala-MeTyr-Val-S8-Phe-Trp-Gln-NH2
B8: I-219 (peptide)
peptide: Ac-[αAllylPro]DA[B5(4)]DEAA[Phe(3,5-F2)]V[S8]FWQ-NH2
modifications: staple 1-4, 4-11
notes: Stapled peptide composition; also called Ac-PL3-Asp-Ala-B5-Asp-Glu-Ala-Ala-35FF-Val-S8-Phe-Trp-Gln-NH2
B9: I-220 (peptide)
peptide: Ac-[αAllylPro]DA[B5(4)]DEAA[Phe(3,5-F2)]V[S8]FWQ-NH2
modifications: staple 1-4, 4-11
notes: as for B8

Each binder was assayed against T1, B-cat-Halo (UniProt P35222 1-781) (assay: cell-based or functional assay).
T1 sequence (looked up): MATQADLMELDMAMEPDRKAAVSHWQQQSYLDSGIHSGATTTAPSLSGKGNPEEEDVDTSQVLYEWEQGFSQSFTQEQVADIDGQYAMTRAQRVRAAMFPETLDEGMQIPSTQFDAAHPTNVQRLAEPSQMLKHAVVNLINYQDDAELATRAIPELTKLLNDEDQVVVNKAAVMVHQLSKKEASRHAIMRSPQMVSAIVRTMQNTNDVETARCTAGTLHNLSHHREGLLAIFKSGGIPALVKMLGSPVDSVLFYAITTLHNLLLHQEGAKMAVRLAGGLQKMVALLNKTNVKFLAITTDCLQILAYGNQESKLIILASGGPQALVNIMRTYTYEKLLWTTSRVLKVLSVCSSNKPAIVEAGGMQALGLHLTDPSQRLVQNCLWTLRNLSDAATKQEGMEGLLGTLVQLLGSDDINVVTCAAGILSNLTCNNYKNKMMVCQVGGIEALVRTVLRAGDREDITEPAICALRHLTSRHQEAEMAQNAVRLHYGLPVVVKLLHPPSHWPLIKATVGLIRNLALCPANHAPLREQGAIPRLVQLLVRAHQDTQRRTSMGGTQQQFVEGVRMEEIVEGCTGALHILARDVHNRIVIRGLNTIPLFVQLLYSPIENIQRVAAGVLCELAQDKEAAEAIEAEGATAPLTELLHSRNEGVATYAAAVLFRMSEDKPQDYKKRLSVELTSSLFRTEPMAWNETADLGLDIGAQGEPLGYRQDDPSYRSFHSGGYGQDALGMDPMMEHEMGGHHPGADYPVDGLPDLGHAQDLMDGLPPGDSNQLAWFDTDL

Row | Binder | NanoBRET Abs IC50 [nM]
1 | Ac-[αAllylPro]N[Cha][B5(5)]DQQAFL[PyrS2″]F[Bta]K-NH2 (staple 1-4, 4-11) [I-2421] | > 20000
2 | Ac-[αAllylPro]D[tBuAla][B5(5)]D[5iPr3COOHF]QAFL[PyrS2″][Phe(2-CF3)][Bta]A-NH2 (staple 1-4, 4-11) [I-2431] | 7000
3 | Ac-[αAllylPro]D[tBuAla][B5(5)]D[5iPr3COOHF]AAFL[PyrS2″][Phe(2-CF3)][Bta]Q-NH2 (staple 1-4, 4-11) [I-2430] | 4500
4 | Ac-[αAllylPro]N[Cha][B5(5)]DQ[Lys(iPr)]AFL[PyrS2″]F[Bta][MorphAsn]-NH2 (staple 1-4, 4-11) [I-2426] | > 20000
5 | B1 | 21600
6 | Ac-[αAllylPro]D[Cha][B5(5)]DQ[Lys(iPr)]AFL[PyrS2″]F[Bta]K-NH2 (staple 1-4, 4-11) [I-2429] | > 20000
7 | Ac-[αAllylPro]N[Cha][B5(5)]DQ[hSer]AFL[PyrS2″]F[Bta]K-NH2 (staple 1-4, 4-11) [I-2419] | > 20000

Each binder was assayed against T2, beta-catenin in DLD1 TCF/LEF luciferase reporter cells (UniProt P35222 1-781) (assay: cell-based or functional assay).
T2 sequence (looked up): T1 sequence (looked up)

Row | Binder | DLD1 4% Abs IC50 [nM]
8 | Ac-[αAllylPro]D[tBuAla][B5(5)]D[Phe(3-COOH)]AAFL[PyrS2][Phe(2-CF3)][Bta]QAA-NH2 (staple 1-4, 4-11) [I-2399] | 2200
9 | Ac-[αAllylPro]D[tBuAla][B5(5)]D[Phe(3-COOH)]AAFL[PyrS2][Phe(2-CF3)][Bta]QL[dL]-NH2 (staple 1-4, 4-11) [I-2396] | 1500
10 | Ac-[αAllylPro]D[tBuAla][B5(5)]D[Phe(3-COOH)]AAFL[PyrS2][Phe(2-CF3)][Bta]QVA-NH2 (staple 1-4, 4-11) [I-2401] | 800
11 | Ac-[αAllylPro]D[tBuAla][B5(5)]D[Phe(3-COOH)]AAFL[PyrS2″][2F3MeF][Bta]QL[dQ]-NH2 (staple 1-4, 4-11) [I-2398] | 1300
12 | Ac-[αAllylPro]D[tBuAla][B5(5)]NT[Aib]AFN[PyrS2″][3Thi][Bta]R-NH2 (staple 1-4, 4-11) [I-2413] | > 20000
13 | Ac-[αAllylPro]D[tBuAla][B5(5)]D[Phe(3-COOH)]AAFL[PyrS2][Phe(2-CF3)][Bta]QFA-NH2 (staple 1-4, 4-11) [I-2400] | 800
14 | Ac-[αAllylPro]D[tBuAla][B5(5)]NT[Aib]AFN[PyrS2″][3Thi][Bta]T-NH2 (staple 1-4, 4-11) [I-2416] | > 20000

Each binder was assayed against T3, B-cat-Halo (beta-catenin HaloTag NanoBRET construct expressed in HEK293 cells) (UniProt P35222 1-781) (assay: cell-based or functional assay).
T3 sequence (looked up): T1 sequence (looked up)

Row | Binder | NanoBRET Abs IC50 [nM]
15 | AzAc-[αAllylPro]D[tBuAla][B5(4)]D[TfeGA]AAFN[PyrS2][3Thi][Bta]Q-NH2 (staple 1-4, 4-11; not fully specified) [I-1054] | > 20000
16 | B2 | > 20000
17 | Ac-[αAllylPro]D[tBuAla][B5(4)]D[TfeGA]AAFT[PyrS2][Phe(2-Cl)][Bta]Q-{NH(CH2)6NH2} (staple 1-4, 4-11) [I-1061] | 10300

These binders were tested against T4, full-length beta-Catenin (Uniprot ID P35222) (Homo sapiens (Human), UniProt P35222 2-781) (assay: AlphaScreen competition: full-length beta-catenin + biotin-TCF4(10-53) probe, peptide titrated).
T4 construct: The AlphaScreen assay used a Histidine (Nickel Chelate) detection kit, so a His tag is likely, but no tag is described; also called B-Catenin; bCat
T4 sequence: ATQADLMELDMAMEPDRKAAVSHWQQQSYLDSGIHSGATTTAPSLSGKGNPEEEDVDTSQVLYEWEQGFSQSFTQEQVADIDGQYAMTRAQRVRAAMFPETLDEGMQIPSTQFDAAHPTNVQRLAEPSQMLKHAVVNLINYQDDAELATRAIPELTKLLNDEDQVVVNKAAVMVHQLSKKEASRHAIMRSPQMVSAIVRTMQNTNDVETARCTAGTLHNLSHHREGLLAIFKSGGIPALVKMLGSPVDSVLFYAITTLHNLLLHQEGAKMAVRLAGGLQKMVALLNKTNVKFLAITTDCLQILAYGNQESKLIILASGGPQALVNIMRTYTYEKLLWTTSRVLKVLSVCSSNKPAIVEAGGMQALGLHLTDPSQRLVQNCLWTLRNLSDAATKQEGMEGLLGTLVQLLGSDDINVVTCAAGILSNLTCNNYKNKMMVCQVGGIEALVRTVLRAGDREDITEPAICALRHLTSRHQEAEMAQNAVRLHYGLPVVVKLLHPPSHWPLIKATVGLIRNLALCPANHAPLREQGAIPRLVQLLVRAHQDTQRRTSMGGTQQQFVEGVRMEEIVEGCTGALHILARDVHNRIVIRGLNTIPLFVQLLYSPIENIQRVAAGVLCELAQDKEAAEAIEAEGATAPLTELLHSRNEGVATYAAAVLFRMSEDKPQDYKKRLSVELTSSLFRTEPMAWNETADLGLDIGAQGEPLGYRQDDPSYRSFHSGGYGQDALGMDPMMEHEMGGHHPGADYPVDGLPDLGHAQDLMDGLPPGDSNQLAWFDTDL
Method in brief: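 Titrated peptide was preincubated 15 minutes at 20° C, then donor and acceptor beads were added for 60 minutes at 20° C protected from light. Reads were done in duplicate, and data were fitted to a 1:1 binding model with Hill slope; concentrations are final.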

Row | Binder | EC50 [nM]
18 | B3 | 1200
19 | B4 | 1200
20 | B5 | 1960
21 | B6 | 1960
22 | B7 | 90
23 | B8 | 131
24 | B9 | 131

Each binder was assayed against T4, full-length beta-Catenin (Uniprot ID …) (assay: fluorescence polarization competition: full-length beta-catenin + 5FAM-TCF4(10-53) probe, peptide titrated).
Protocol: The plate was incubated protected from light for 60 minutes at 20° C. prior to read. Reads were performed on a CLARIOstar plate reader (BMG Labtech) in duplicate, and data were fitted to a 1:1 binding model with hill slope using an in-house script. All provided concentrations are final concentrations.

Row | Binder | EC50 [nM]
25 | B3 | 5000
26 | B4 | 5000
27 | B5 | 5000
28 | B6 | 5000
29 | B7 | 1960
30 | B8 | 2860
31 | B9 | 2860
